Source: patent US20090215689A1 (TECNOGEN S P A, published 2009)
Each block holds one binder with its values, some of them ahead of it.

Assays:
[1] = target: T1, Human recombinant FGF2 (Fibroblast growth factor-2) (human, UniProt P09038 134-288, limits assumed); experiment: solid phase assay: peptide-coated wells (200 µg/well), FGF2 80 nM, detection with anti-FGF2 antibody
Experimental: (§1) Then, wells were overcoated for 2 hours at room temperature with 5% dry milk in coating buffer. […] Then, 100 μl/well of the chromogen substrate 2,29-azinobis(3-ethylbenzthiazolinesulfonic acid) were added. Absorbance values were read at 405 nm in an automatic ELISA reader.

[2] = target: T1, Human recombinant FGF2 (Fibroblast …); experiment: as above; remark: listed apart in the source
Experimental: (§2) The response was recorded at the end of injection and plotted as a function of the antagonist concentration.
as §1

[3] = target: T1, Human recombinant FGF2 (Fibroblast …); experiment: SPR competition: competitor with FGF2 0.8 µM in the mobile phase over immobilized PTX3
Source text: (§3) A BIAcore X apparatus (BIAcore Inc, Piscataway, N.J.) was used.

[4] = target: T1, Human recombinant FGF2 (Fibroblast …); experiment: SPR competition (printed as ID50): competitor with FGF2 0.8 µM in the mobile phase over immobilized PTX3
Experimental: as §2, §3

[5] = target: T1, Human recombinant FGF2 (Fibroblast …); experiment: SPR competition: FGF2 0.8 µM over immobilized PTX3 with the peptide in the mobile phase
Experimental: The response was recorded at the end of injection and plotted as a function of the antagonist concentration. […] The response was recorded at the end of injection and plotted as a function of the antagonist concentration.
as §3

T1 sequence (P09038 134-288 limits assumed): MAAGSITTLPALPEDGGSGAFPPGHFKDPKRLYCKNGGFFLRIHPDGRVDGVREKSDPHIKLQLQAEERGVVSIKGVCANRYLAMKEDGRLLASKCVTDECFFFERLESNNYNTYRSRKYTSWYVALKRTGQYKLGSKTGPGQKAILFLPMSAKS

fold lower potency than free full length PTX3 [3]: 30 fold
IC50 [4]: 30 µM
B3: synthetic peptide PTX3(82-110) (peptide)
peptide: RGELQRLREELGRLAESLARPCAPGAPAE
notes: also called parental peptide PTX3(82-110)

binding result [5]: no binding (tested: about 3000 µM)
B4: synthetic peptide PTX3(82-96) (peptide)
peptide: RGELQRLREELGRLA

binding result [1]: no binding (tested: FGF2 80 nM)
B5: synthetic peptide PTX3(31-60) (peptide)
peptide: DNEIDNGLHPTEDPTPCDCGQEHSEWDKLF

Second part, the binder before the results:

B1: synthetic peptide PTX3(57-85) (peptide)
peptide: DKLFIMLENSQMRERMLLQATDDVLRGEL
binding result [1]: no binding (tested: FGF2 80 nM)

B2: synthetic peptide PTX3(82-101) (peptide)
peptide: RGELQRLREELGRLAESLAR
binding result [2]: no binding (tested: FGF2 80 nM)
